Data on five substances can be found in US6875581.

The assay addresses calcineurin (recombinant or partly purified, phosphoserine phosphatase assay). The assay is described as follows: cell-based or functional assay.

As for “recombinant human CuZnSOD mutation G93A (from UniProt P00441 2-154) (enzyme)”, the Percentage of FK506 inhibitable RII-phosphopeptide activity after 20 min compared with the activity at 0 min; constant activity (1.67 U) turned out to be 21% and the Percentage of FK506 inhibitable RII-phosphopeptide activity after 20 min compared with the activity at 0 min; constant protein (3 ug) was determined as 16%.

“purified human erythrocyte CuZnSOD (Sigma Aldrich) (from UniProt P00441 2-154) (enzyme)”: the Percentage of FK506 inhibitable RII-phosphopeptide activity after 20 min compared with the activity at 0 min; constant activity (1.67 U) came out at 57%, the Percentage of FK506 inhibitable RII-phosphopeptide activity after 20 min compared with the activity at 0 min; constant protein (3 ug) turned out to be 57% and the protection of calcineurin after calcium induced redox inactivation fell in the range of 50 to 100%.

Consider “recombinant human wild-type CuZnSOD (from UniProt P00441 2-154) (enzyme)”, for which the Percentage of FK506 inhibitable RII-phosphopeptide activity after 20 min compared with the activity at 0 min; constant activity (1.67 U) amounted to 56%, the Percentage of FK506 inhibitable RII-phosphopeptide activity after 20 min compared with the activity at 0 min; constant protein (3 ug) stood at 70% and the protection of calcineurin after calcium induced redox inactivation is 50 to 100%.

Regarding “recombinant human CuZnSOD mutation A4V (from UniProt P00441 2-154) (enzyme)”, the Percentage of FK506 inhibitable RII-phosphopeptide activity after 20 min compared with the activity at 0 min; constant activity (1.67 U) is 8% and the Percentage of FK506 inhibitable RII-phosphopeptide activity after 20 min compared with the activity at 0 min; constant protein (3 ug) amounted to 22%.

As to “recombinant human CuZnSOD mutation D90A (from UniProt P00441 2-154) (enzyme)”, the Percentage of FK506 inhibitable RII-phosphopeptide activity after 20 min compared with the activity at 0 min; constant activity (1.67 U) came out at 32% and the Percentage of FK506 inhibitable RII-phosphopeptide activity after 20 min compared with the activity at 0 min; constant protein (3 ug) was determined as 42%.
